Test results as given in paper doi:10.1101/2024.03.17.584836 (bioRxiv, 2024).
Where “and” joins values, the source holds several entries; their conditions need not be identical. Equal values may be shown once. Read-outs that look alike come from different tables or passages of the source.

What was measured:
[1] = molecular target: Nlg1-GFP, wild type, in HEK cell lysate (UniProt Q99K10); assay: single molecule pull-down with counting of photobleaching steps
[2] = molecular target: Nrx1β-Fc (neurexin-1β C-terminally fused to human Fc) (UniProt Q63373)
[3] = molecular target: Nrx1β-Fc (neurexin-1β C-terminally fused to human Fc) (UniProt Q63373); remark: listed apart in the source
[4] = molecular target: Nrx1β-Fc (neurexin-1β C-terminally fused to human Fc) (UniProt Q63373); remark: listed apart in the source
[5] = molecular target: Nlg1^E584A/L585A-GFP, in HEK cell lysate (UniProt Q99K10); assay: single molecule pull-down with counting of photobleaching steps
[6] = molecular target: Nrx1β-Fc (neurexin-1β C-terminally fused to human Fc) (UniProt Q63373); remark: listed apart in the source
[7] = molecular target: Nrx1β-Fc (neurexin-1β C-terminally fused to human Fc) (UniProt Q63373); assay: FRAP of soluble fluorescent protein bound to ligand-coated micropatterns

Molecule: Nlg1-GFP, wild type, in HEK cell lysate (from UniProt Q99K10 46-843) (receptor)
- stoichiometry N [1]: 2

Molecule: AP-Nlg1 (AP-tagged Nlg1, full length), expressed in COS-7 cells (from UniProt Q62765 46-843) (receptor)
- koff of the reaction part of the PSD-95-GFP FRAP curves [2]: 0.005 s⁻¹ and 0.008 s⁻¹

Molecule: HA-Nlg1-GFP (-21), wild type, expressed in COS-7 cells (from UniProt Q99K10 46-843) (receptor)
- koff [3]: 0.004 s⁻¹
- enrichment level E (fluorescence on ligand stripes / PEG lines) [4]: 2.3

Molecule: Nlg1^E584A/L585A-GFP, in HEK cell lysate (from UniProt Q99K10 46-843) (receptor)
- percent in a monomeric form (1 photobleaching step) [5]: 55%

Molecule: HA-Nlg1^E584A/L585A-GFP (-21), expressed in COS-7 cells (from UniProt Q99K10 46-843) (receptor)
- enrichment level E (fluorescence on ligand stripes / PEG lines) [6]: 2.5

B1: Nlg1-HaloTag-AF488 (purified dimeric Nlg1 C-terminally fused to Halo-tag, conjugated to AF488) (other)
chain: QKLDDVDPLVTTNFGKIRGIKKELNNEILGPVIQFLGVPYAAPPTGEHRFQPPEPPSPWSDIRNATQFAPVCPQNIIDGRLPEVMLPVWFTNNLDVVSSYVQDQSEDCLYLNIYVPTEDVKRISKECARKPGKKICRKGDIRDSGGPKPVMVYIHGGSYMEGTGNLYDGSVLASYGNVIVITVNYRLGVLGFLSTGDQAAKGNYGLLDLIQALRWTSENIGFFGGDPLRITVFGSGAGGSCVNLLTLSHYSEGNRWSNSTKGLFQRAIAQSGTALSSWAVSFQPAKYARILATKVGCNVSDTVELVECLQKKPYKELVDQDVQPARYHIAFGPVIDGDVIPDDPQILMEQGEFLNYDIMLGVNQGEGLKFVENIVDSDDGVSASDFDFAVSNFVDNLYGYPEGKDVLRETIKFMYTDWADRHNPETRRKTLLALFTDHQWVAPAVATADLHSNFGSPTYFYAFYHHCQTDQVPAWADAAHGDEVPYVLGIPMIGPTELFPCNFSKNDVMLSAVVMTYWTNFAKTGDPNQPVPQDTKFIHTKPNRFEEVAWTRYSQKDQLYLHIGLKPRVKEHYRANKVNLWLELVPHLHNLNDISQYTSTTTKVPSTDITLRPTRKNSTPVTSAFPTAKQDDPKQQPSPFSVDQRDYSTELS
modifications: HaloTag-Alexa488 ligand (Promega G1002) coupled to the HaloTag
- koff [7]: ~0.0015 s⁻¹
